The values below come from the supplement of paper PMC9732359.

A short description of this series: protein stability index of a GFP-peptide fusion (yeast GPS) (PSI 1-4); higher = more stable; sorted into four equal gates, so the index is relative within each strain. Summed up:
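Mid-log yeast cultures in leucine-free medium, carrying a pooled plasmid library, were sorted into four equal gates by their GFP/Cherry fluorescence ratio. Each plasmid expressed Cherry along with GFP fused upstream of a tiled 17-residue yeast protein peptide. Plasmids recovered from each gate were PCR-amplified and Illumina-sequenced, with reads assigned to strains by barcodes. The protein stability index was obtained by summing each gate's read frequency weighted by its gate number.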

± gives the uncertainty stated by the source.

Turning to VSEDLLDERGHEKIEDE [RPN4], the protein stability index was 3.36 ± 0.1 (doa10∆), 3.53 ± 0.15 (pdr5∆), 3.71 ± 0.08 (san1∆) and 3.45 ± 0.11 (ubr1∆).

As to KLNELDELILEAKERYT [NNF1], the protein stability index is 2.98 ± 0.11 (doa10∆), 3.17 ± 0.096 (pdr5∆), 3.23 ± 0.058 (san1∆) and 2.82 ± 0.16 (ubr1∆).

On to IRDSIPQMDSFDKDLER [DIS3], for which the protein stability index is, setting by setting: (doa10∆) 3.15 ± 0.092; (pdr5∆) 3.32 ± 0.1; (san1∆) 3.19 ± 0.061; (ubr1∆) 3.01 ± 0.12.

EESLTVLNCLRTMYFIL [YJR042W/NUP85] returned a protein stability index (doa10∆) of 2.54 ± 0.11, a protein stability index (pdr5∆) of 1.83 ± 0.081, a protein stability index (san1∆) of 1.38 ± 0.098 and a protein stability index (ubr1∆) of 1.57 ± 0.068.

As to MAPFRQDSILIIYPRSQ [ARP9], the protein stability index by setting is: (doa10∆) 2.41 ± 0.28; (pdr5∆) 2.69 ± 0.17; (san1∆) 2.82 ± 0.083; (ubr1∆) 2.58 ± 0.076.

Regarding DKLEKVTHDCYRVTLES [RPC34], the protein stability index by setting is: (doa10∆) 3.37 ± 0.16; (pdr5∆) 3.3 ± 0.06; (san1∆) 3.25 ± 0.075; (ubr1∆) 3.12 ± 0.085.

Sequence ATQSGGVRPFGVSLLIA [PRE8] came in with a protein stability index (doa10∆) of 1.29 ± 0.071, a protein stability index (pdr5∆) of 1.62 ± 0.071, a protein stability index (san1∆) of 1.4 ± 0.17 and a protein stability index (ubr1∆) of 1.51 ± 0.064.

As for FQAQQAQQAQQAQQAQQ [SNF2], the protein stability index runs as follows: (doa10∆) 2.86 ± 0.052; (pdr5∆) 3 ± 0.046; (san1∆) 2.85 ± 0.035; (ubr1∆) 2.73 ± 0.035.

Take DPKRLFEGNALIRRLVR [RPS9A]: the protein stability index (pdr5∆) was 3.52 ± 0.28.

Regarding LTEGGSILEEKIAVLNN [SMC1], the protein stability index reads like this: (doa10∆) 3.31 ± 0.22; (pdr5∆) 2.85 ± 0.15; (san1∆) 3.32 ± 0.11; (ubr1∆) 2.87 ± 0.28.

VSKPSLLHETNDSFKGL [PRP8]: the protein stability index amounted to 2.74 ± 0.13 (pdr5∆) and 2.99 ± 0.097 (ubr1∆).

SHTGLIRKYGLNICRQC [RPS29A]: the protein stability index by setting is: (doa10∆) 1.51 ± 0.047; (pdr5∆) 1.58 ± 0.05; (san1∆) 1.51 ± 0.093; (ubr1∆) 1.89 ± 0.053.

Consider TDIKQFLELTRRADVKT [RPL38], for which the protein stability index runs as follows: (doa10∆) 2.95 ± 0.17; (pdr5∆) 3.29 ± 0.17.

On to KKAFTSYDRTLLIADSR [RPS16A], for which the protein stability index is, setting by setting: (doa10∆) 2.25 ± 0.044; (pdr5∆) 2.48 ± 0.073; (san1∆) 1.9 ± 0.079; (ubr1∆) 2.24 ± 0.059.

For the sequence QTEIKDIILGQNIKAPS [PRP8], the protein stability index runs as follows: (doa10∆) 2.6 ± 0.087; (pdr5∆) 3.04 ± 0.074; (san1∆) 2.58 ± 0.11; (ubr1∆) 2.78 ± 0.07.

For the sequence ATLYIPKALRFDRLVAG [FAS2], the protein stability index was found to be 2.88 ± 0.22 (doa10∆), 1.23 ± 0.068 (pdr5∆) and 1.44 ± 0.09 (ubr1∆).

With QTVSNKEDAKATMENIQ [SRP54], the protein stability index is, setting by setting: (doa10∆) 2.98 ± 0.062; (pdr5∆) 3.18 ± 0.066; (san1∆) 2.91 ± 0.075; (ubr1∆) 2.99 ± 0.056.

Sequence LSDYEVLKFLTDLEKKH [RPC17] showed a protein stability index (doa10∆) of 3.38 ± 0.13, a protein stability index (pdr5∆) of 3.23 ± 0.12, a protein stability index (san1∆) of 3.08 ± 0.086 and a protein stability index (ubr1∆) of 3.11 ± 0.13.

In turn, RTYSKTYSTPKRPYESS [RPS9A] showed a protein stability index (doa10∆) of 2.19 ± 0.055, a protein stability index (pdr5∆) of 2.23 ± 0.066, a protein stability index (san1∆) of 2.46 ± 0.053 and a protein stability index (ubr1∆) of 2.53 ± 0.043.

Take GSSSIIYYDSYIHLAYS [SSN2]: the protein stability index runs as follows: (doa10∆) 2.56 ± 0.11; (pdr5∆) 2.61 ± 0.12; (san1∆) 2.7 ± 0.068; (ubr1∆) 2.79 ± 0.28.

As to KLSDNISICMILCGIQE [YDL116W/NUP84], the protein stability index was 2.23 ± 0.074 (doa10∆), 1.86 ± 0.083 (pdr5∆), 2.62 ± 0.12 (san1∆) and 2.06 ± 0.11 (ubr1∆).

Turning to SNDKFVHVQLLINLKIS [SRB8], the protein stability index reads like this: (doa10∆) 1.51 ± 0.042; (pdr5∆) 1.82 ± 0.045; (san1∆) 1.6 ± 0.064; (ubr1∆) 1.61 ± 0.034.

TRVRLPSGAKKVISSDA [RPL2A]: the protein stability index turned out to be 3.25 ± 0.092 (doa10∆), 3.27 ± 0.084 (pdr5∆), 3.26 ± 0.049 (san1∆) and 3.26 ± 0.072 (ubr1∆).

As to ISPESVFGTLGELIKVN [SMC3], the protein stability index is 2.15 ± 0.06 (doa10∆), 2.25 ± 0.078 (pdr5∆), 1.84 ± 0.096 (san1∆) and 1.86 ± 0.036 (ubr1∆).

DSPFSLICQNNLNAFVD [SRP72]: the protein stability index runs as follows: (doa10∆) 2.98 ± 0.069; (pdr5∆) 3 ± 0.055; (san1∆) 2.85 ± 0.05; (ubr1∆) 2.92 ± 0.046.

In the case of DKQGWTPLFHALAEGHG [NAS6], the protein stability index was determined as 2.75 ± 0.2 (doa10∆), 2.34 ± 0.098 (pdr5∆), 2.99 ± 0.13 (san1∆) and 3.01 ± 0.17 (ubr1∆).

In the case of FHIGYFKATIQILQGIC [RPO31], the protein stability index worked out at 1.39 ± 0.042 (doa10∆), 1.48 ± 0.035 (pdr5∆), 1.72 ± 0.062 (san1∆) and 1.54 ± 0.036 (ubr1∆).
